# Experimental data from PMC3212534, “Structural-Functional Characterization and Physiological Significance of Ferredoxin-NADP^+ Reductase from Xanthomonas axonopodis pv. citri” (PLoS ONE, 2011).
# Tests used:
# pea-FNR = target: T1, pea-FNR (Lathyrus oleraceus, UniProt P10933); test: UV-visible difference spectroscopy; format: binding; details: 0.3 mM NADP+; Kd in Table 1 is quoted from reference 49
# T1 construct: gene PETH; plastidic FNR; preparation not described here
# T1 sequence (P10933 53-360): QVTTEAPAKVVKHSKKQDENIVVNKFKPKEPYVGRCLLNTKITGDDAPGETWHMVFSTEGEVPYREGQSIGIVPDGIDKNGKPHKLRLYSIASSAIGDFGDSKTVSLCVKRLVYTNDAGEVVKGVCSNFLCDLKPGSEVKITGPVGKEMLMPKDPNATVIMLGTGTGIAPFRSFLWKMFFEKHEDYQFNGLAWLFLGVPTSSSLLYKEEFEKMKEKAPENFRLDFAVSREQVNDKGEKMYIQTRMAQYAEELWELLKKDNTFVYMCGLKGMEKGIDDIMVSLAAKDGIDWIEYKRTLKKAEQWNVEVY
# Xac-FNR = target: T2, Xac-FNR (Xanthomonas citri, UniProt A0AAI7ZED9); test: difference absorption spectroscopy titration; format: binding; details: read-out: NADPH / K d
# T2 construct: gene fpr; entire coding region in pET28a, N-terminal His6 tag cut with thrombin; expressed in E. coli BL21(DE3)pLysS; FAD-containing subclass I bacterial FNR
# Excerpt: difference absorption spectroscopy titration on Xac-FNR
# Ec-FNR = target: T3, Ec-FNR (Escherichia coli, UniProt P28861); test: UV-visible difference spectroscopy; format: binding; details: 0.3 mM NADP+; Kd in Table 1 is quoted from reference 49
# T3 construct: gene fpr; subclass II bacterial FNR; preparation not described here
# T3 sequence (P28861 2-248): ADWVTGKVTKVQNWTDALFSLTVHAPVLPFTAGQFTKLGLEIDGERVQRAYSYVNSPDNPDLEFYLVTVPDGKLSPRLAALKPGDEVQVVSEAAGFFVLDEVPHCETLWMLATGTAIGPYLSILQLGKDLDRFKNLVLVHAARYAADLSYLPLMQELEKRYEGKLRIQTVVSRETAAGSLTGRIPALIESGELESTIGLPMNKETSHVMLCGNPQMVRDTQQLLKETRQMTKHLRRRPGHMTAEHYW
# [1] = test system: NC(=O)C1=CN([C@@H]2O[C@H](COP(=O)(O)OP(=O)(O)OC[C@H]3O[C@@H](n4cnc5c(N)ncnc54)[C@H](OP(=O)(O)O)[C@@H]3O)[C@@H](O)[C@H]2O)C=CC1; test: purified protein; details: potassium ferricyanide as acceptor, 50 mM Tris-HCl pH 8.0, 30 °C
# [2] = test system: NC(=O)C1=CN([C@@H]2O[C@H](COP(=O)(O)OP(=O)(O)OC[C@H]3O[C@@H](n4cnc5c(N)ncnc54)[C@H](O)[C@@H]3O)[C@@H](O)[C@H]2O)C=CC1; test: purified protein; details: 1 mM potassium ferricyanide as acceptor, 50 mM Tris-HCl pH 8.0, 30 °C
# T2 sequence (A0AAI7ZED9 entry or part of it): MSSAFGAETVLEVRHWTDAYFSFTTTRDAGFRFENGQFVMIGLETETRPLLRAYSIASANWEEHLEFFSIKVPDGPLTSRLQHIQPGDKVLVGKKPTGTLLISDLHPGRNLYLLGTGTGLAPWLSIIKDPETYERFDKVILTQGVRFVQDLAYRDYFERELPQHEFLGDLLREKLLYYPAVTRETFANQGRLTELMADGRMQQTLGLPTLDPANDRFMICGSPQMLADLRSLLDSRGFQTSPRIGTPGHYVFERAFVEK
Compound,UV-visible difference spectroscopy (pea-FNR),Kd (Xac-FNR),UV-visible difference spectroscopy (Ec-FNR),Km [1],kcat [1],kcat/Km [1],Km [2],kcat [2],kcat/Km [2]
NC(=O)c1ccc[n+]([C@@H]2O[C@H](COP(=O)(O)OP(=O)(O)OC[C@H]3O[C@@H](n4cnc5c(N)ncnc54)[C@H](OP(=O)(O)O)[C@@H]3O)[C@@H](O)[C@H]2O)c1 [NADP^+],Differential UV-visible spectra elicited by the interaction between the enzymes and NADP^+,9.7 ± 0.4 µM,Differential UV-visible spectra elicited by the interaction between the enzymes and NADP^+,,,,,,
Xac-FNR (Xanthomonas citri subsp. citri 306),,,,10.8 ± 0.5 µM,122 s⁻¹,1.13e+07 M⁻¹ s⁻¹,3300 ± 1400 µM,3.2 ± 1.3 s⁻¹,1000 M⁻¹ s⁻¹
